Values quoted from earlier work in article PMC7509490.

Target: G-actin (Oryctolagus cuniculus) (UniProt P68135)

Kd: 200 nM
Substance: Profilin (from UniProt P07274)
